According to US8329186B2, “Treatment of inflammation using BST2 inhibitor” (Isu Abxis Co., Ltd, priority 2004, dated 2012):

Tests used:
IL-4, IL-5 and IL-13 = assay: Ovalbumin-induced mouse model of asthma: cytokines in lung tissue (immunoblot); format: in vivo; conditions: ovalbumin-sensitized asthmatic mice
Procedure: A mouse model of asthma was prepared by sensitizing mice (C57B6, 8 weeks) with ovalbumin. In detail, mice were initially sensitized for five continuous days by intranasal injection of ovalbumin. After three weeks, mice were intranasally sensitized again with ovalbumin for five continuous days. One week after the secondary sensitization, mice were challenged intranasally with ovalbumin three times every 24 hrs to induce asthma. Herein, a Bst2 decoy was intravenously injected into mice 30 min before sensitization with ovalbumin, and was injected into mice 30 min before the first sensitization and the last injection of ovalbumin. Three days after the last injection, serum samples, lung tissues, and the like were collected from mice.
When a Bst2 or Damp1 decoy was injected into a mouse model of asthma which was induced by sensitization and challenge with ovalbumin, expression levels of cytokines (interleukin-4 (IL-4), interleukin-5 (IL-5) and interleukin-13 (IL-13)) were measured as follows. […] The bound primary antibodies were detected with a HRP-conjugated secondary antibody (anti-rabbit HRP-conjugated IgG) using ECL reagent.
Expression of 11-4, IL-5 and IL-13 was measured in the murine asthma model as described in Example 8-3 after injection with Bst2 decoy or Bst2 decoy Fc fusion proteins.

TNF-alpha, IL-6, HMGB-1 = assay: CLP sepsis model: plasma inflammatory proteins (ELISA); format: in vivo, rat
Description: A rat model of sepsis was induced through cecal ligation and puncture (CLP) as described previously (Wichterman K A, Baue A E, Chaudry I H: Sepsis and septic shock-a review of laboratory models and a proposal. J Surg Res 29:189-201, 1980). An incision was made along the midline of the abdomen on an anesthetized animal. The cecum was exteriorized, ligated and punctured with a stainless steel needle. An appropriate amount of fecal matter was then extruded. The gauge of the needle, number of punctures and amount of fecal matter extruded are all factors in determining the severity of sepsis and mortality. […] The incision was sutured and appropriate post-operative care was administered. Sham-operated animals were subjected to similar laparotomy and intestinal manipulation, however, the cecum was neither ligated nor punctured. Immediately or 6 hours after the CLP procedure, animals were given intravenous injection of vehicle or a Bst2 decoy.
Blood samples were collected at 1, 3, 6, 18 and 24 hours post-CLP. Plasma levels of representative inflammatory response proteins were measured using ELISA kits; TNF-alpha(BD Biosciences, San Diego, Calif.) and IL-6(BD Biosciences, San Diego, Calif.) at 1, 3, and 6 hours, HMGB-1 (Shino-Test Corp., Japan) at 18 and 24 hours. Typically, after CLP in rodents, TNF-alpha spikes at 3 hours and IL-6 spikes at 6 hours.

[1] = test system: OVA-induced atopic dermatitis; assay: OVA-induced atopic dermatitis model in mice; format: in vivo, BALB/c mice
Procedure: An experimental model of atopic dermatitis based on immunity against ovalbumin (OVA) was utilized to test Bst2 decoy for efficacy in atopic dermatitis. BALB/c mice were immunized at the beginning of weeks 1, 2, and 3 with intraperitoneal injections of OVA/ALUM. During week 4, an OVA-soaked patch was applied to the shaved backs of the animals. The patches were removed and 5 daily doses of Bst2 decoy was administered to the animal by intravenous injections of 10 mg/kg during week 5. OVA-soaked patches were applied again to the animals over week 6 and the animals were sacrificed for evaluation at the beginning of week 7 (FIG. 43).
Serum was prepared from blood sample collected from the sacrificed animals. OVA-specific IgE levels were determined by ELISA assays in which OVA was coated on the plate, OVA-specific immunoglobulin present in the serum samples allowed to blind, and IgE levels ascertained utilizing anti-IgE specific antibodies.

U937 cells = assay: Direct binding of U937 cells to Bst2 decoy-coated plates; set-up: species or system human; conditions: Bst2 decoy-coated wells vs BSA
Procedure: Flat-bottomed 96-well plates were coated with Bst2 decoy with sodium bicarbonate (100 mM, pH 9.5) for 2 hrs at 37° C. The plates were washed with PBS (pH 7.4) and incubated with 1% bovine serum albumin (BSA) at 25° C. After a rinse with PBS (pH 7.4) containing 1 mM CaCl2 and 0.5 mM MgCl2, U937 cells (1×10^6/ml) were added to each dBst2-coated well. After 2 hrs of incubation at 37° C., unbound cells were removed by two gentle washes with RPMI1640 media (Gibco-BRL) and bound cells were fixed with 2% paraformaldehyde for 20 minutes, washed, and stained with 0.5% crystal violet. After 30 minutes at 25° C., the plates were washed with PBS and bound cells were counted.

Jurkat cells = assay: Homotypic aggregation of Jurkat T cells activated with anti-CD3; format: cell-based, human; conditions: pretreatment 30 min before activation with anti-CD3
Procedure: When Jurkat cells (5×10^5 cells/ml) were incubated with anti-CD3 monoclonal antibody (OKT3: 10 μg/ml, BD Pharmingen) at 4° C. for 20 min and then with anti-mouse immunoglobulin polyclonal antibody (25 μg/ml, Zymed) 37° C. for 1 hr, cell aggregation occurred, and the cells were activated and induced to produce interleukin-2 (IL-2) (FIGS. 10 and 11). According to the same method, when green fluorescent protein (GFP) overexpression was induced, there was no effect. In contrast, when Jurkat cells were transfected with a Bst2-overexpressing vector and were induced to activate, homotypic cell aggregation increased (FIG. 10, panel A). IL-2 mRNA levels upon T cell activation were measured by real-time RT-PCR (Example 3). IL-2 mRNA expression was elevated by about two times under Bst2 overexpression in comparison with GFP overexpression (FIG. 10, panel B).
Jurkat cells were pretreated with a Bst2 decoy 30 min before activation, were activated using anti-CD3 monoclonal antibody, and were evaluated for inhibition of cell aggregation. The cells were treated with a relative amount of serial dilutions of an animal cell culture fluid containing a Bst2 decoy. The size of aggregates was represented as a ratio to the size of aggregates of a non-treatment group.

B1: Bst2 decoy: soluble Bst2 protein fragment having the amino acid sequence of SEQ ID NO:1; extracellular region of human Bst2, six-histidine tag (protein)
chain: NSEACRDGLRAVMECRNVTHLLQQELTEAQKGFQDVEAQAATCNHTVMALMASLDAEKAQGQKKVEELEGEITTLNHKLQDASAEVERLRRENQVLSVRIADKKYYPSSQDHHHHHH
cytokine levels (IL-4, IL-5, IL-13) in lung tissue (IL-4, IL-5 and IL-13): decreased with increasing doses | plasma IL-6 spike (TNF-alpha, IL-6, HMGB-1; 1, 3 and 6 hours post-CLP): substantially suppressed | plasma TNF-alpha response (TNF-alpha, IL-6, HMGB-1; 1, 3 and 6 hours post-CLP): virtually absent | plasma HMGB-1 (TNF-alpha, IL-6, HMGB-1; 18 and 24 hours post-CLP): reducing both the amount and rate of increase | formation of lesions after OVA-soaked patch ([1]; 10 mg/kg intravenous, 5 daily doses during week 5, end of week 6): little if any formation of lesions | serum OVA-specific IgE levels ([1]; ELISA): substantial reduction | inflammation in H&E stained skin sections ([1]; to a level similar to the negative control group): marked decrease in inflammation | attachment of U937 cells to coated wells (U937 cells): attached | aggregation of Jurkat cells (Jurkat cells): significant decrease
